Measurements from patent publication US8551742B2 (priority 2007, dated 2013).

How the values were obtained:
MetK = MetK mutants radioactive assay in vitro ([methyl-14C]methionine to SAMe); type: biochemical, E. coli; conditions: 5 minute reaction time; C-terminal His tagged proteins unless untagged
Description: The metK gene from E. coli (Accession number AP—003499 or BAE77005) was cloned and overexpressed with either an N-terminal or a C-terminal His tag in pET28b vector. Site directed mutagenesis was performed using the C-terminal His tagged metK clone to generate the desired mutants. Expression of the mutant MetK proteins was confirmed.
The MetK mutants were purified (using the C-terminal His tag) and assayed in vitro. The wild type C-terminal His-tagged MetK protein was used as a control. The mutants were assayed using a radioactive assay. The assay conditions were as follows: • Assay Mix: • 1.0 mL 0.5 M HEPES/KOH, pH 8.0 • 0.5 mL 1.0 M KCl • 0.2 mL 1.0 M MgCl2 • 1.0 mL 100 mM ATP (disodium salt, pH 8.0 with KOH) • 0.1 mL 50 mM methionine • 0.1 mL NEN [methyl-^14C]methionine • 6.6 mL H2O • 25 mM EDTA pH 8.0 stop for assays.
45 μl of assay mix was added to an Eppendorf tube and 5 μL of enzyme (normalized data shown in Table 13. The reaction was incubated at room temperature (or 25° C.) for a desired period (1 to 10 minutes). The reaction was stopped with the addition of 150 μL of 25 mM EDTA. 100 μL of the reaction was spotted onto a 2.5 cm diameter Whatman P-81 phosphocellulose filter circle (labeled in pencil). The filters were washed with 3 L of distilled water, air-dried and placed in scintillation vials with aquasol. The emissions were counted using a window that extends from ^14C to about 0. Assay efficiency and quench levels were determined by adding a known amount of counts of pure ^14C-SAM and processing through the whole procedure. Backgrounds are typically<100 cpm (total counts ca. 10^5 cpm per reaction).

excreted Met = conditions: literature reference AEM 2005; cited from earlier work

B1: Val 185 Glu: E. coli MetK mutant, C-terminal His tagged, purified (protein, UniProt P0A817 2-384, looked up, variant V185E)
S-adenosylmethionine synthase: AKHLFTSESVSEGHPDKIADQISDAVLDAILEQDPKARVACETYVKTGMVLVGGEITTSAWVDIEEITRNTVREIGYVHSDMGFDANSCAVLSAIGKQSPDINQGVDRADPLEQGAGDQGLMFGYATNETDVLMPAPITYAHRLVQRQAEVRKNGTLPWLRPDAKSQVTFQYDDGKIVGIDAVELSTQHSEEIDQKSLQEAVMEEIIKPILPAEWLTSATKFFINPTGRFVIGGPMGDCGLTGRKIIVDTYGGMARHGGGAFSGKDPSKVDRSAAYAARYVAKNIVAAGLADRCEIQVSYAIGVAEPTSIMVETFGTEKVPSEQLTLLVREFFDLRPYGLIQMLDLLHPIYKETAAYGHFGREHFPWEKTDKAQLLRDAAGLK
modifications: C-terminal His tag
notes: E. coli MetK mutant, C-terminal His tagged, purified
- Activity (CPM SAMe/ μg purified protein/min) (MetK): 4.9 CPM SAMe/ μg purified protein/min
- Expected Effect: increase in excreted Met over control (excreted Met): 6.4X increase in
